Source: patent publication US20230399394A1 (SUNSHINE GUOJIAN PHARMACEUTICAL SHANGHAI, published 2023)

Tests used:
Pep9 = target: T1, Pep9 (human, N-terminal biotin); assay: ELISA, biotinylated peptide on streptavidin plate, antibody 10 µg/mL, well 2
T1 construct: Synthetic 20-mer of human IL-33
T1 peptide: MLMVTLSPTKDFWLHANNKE
Procedure: (§1) To determine the binding activity of antibody to each polypeptide fragment, the ELISA plate was pre-coated by biotin-avidin (SA) which was diluted in coating solution (50 mM carbonate coating buffer, pH 9.6) to 2 μg/ml at 4° C. overnight. The plate was washed with PBST for 3 times, and then blocked with 2% BSA prepared in PBS at room temperature for 2 h with 200 μL/well. The plate was washed once with PBST, and 864F3 and 874F7 with final concentrations of 10 μg/mL were added at 100 μL/well, respectively, and the plate was incubated at room temperature for 1 h. The plate was washed with PBST for 3 times, and the goat anti-mouse IgG labeled by HRP was added and placed at 37° C. for 30 min. After washing the plate with PBST for 3 times, the plate was patted on the absorbent paper to remove residual droplets as far as possible. 100 μl TMB developing solution was added to each well, and the plate was placed at room temperature (20±5° C.) for 5 minutes away from light; 50 μl 2M H₂SO₄ terminating solution was added to each well to terminate the substrate reaction. OD values were read at 450 nm on the microplate reader to analyze the binding ability of the antibody to each polypeptide fragment. The experimental results are shown in […]

Pep15 = target: T2, Pep15 (human, N-terminal biotin); assay: as above
T2 construct: Synthetic 20-mer of human IL-33
T2 peptide: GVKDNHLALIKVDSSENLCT
Procedure: as §1

Pep10 = target: T3, Pep10 (human, N-terminal biotin); assay: as above
T3 construct: Synthetic 20-mer of human IL-33
T3 peptide: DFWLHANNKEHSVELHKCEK
Procedure: as §1

Pep16 = target: T4, Pep16 (human, N-terminal biotin); assay: as above
T4 construct: Synthetic 20-mer of human IL-33
T4 peptide: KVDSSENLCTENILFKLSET
Procedure: as §1

Pep14 = target: T5, Pep14 (human, N-terminal biotin); assay: as above
T5 construct: Synthetic 20-mer of human IL-33
T5 peptide: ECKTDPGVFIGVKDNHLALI
Procedure: as §1

Pep11 = target: T6, Pep11 (human, N-terminal biotin); assay: as above
T6 construct: Synthetic 20-mer of human IL-33
T6 peptide: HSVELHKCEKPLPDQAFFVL
Procedure: as §1

Pep2 = target: T7, Pep2 (human, N-terminal biotin); assay: as above
T7 construct: Synthetic 20-mer of human IL-33
T7 peptide: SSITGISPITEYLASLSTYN
Procedure: as §1

Pep4 = target: T8, Pep4 (human, N-terminal biotin); assay: as above
T8 construct: Synthetic 20-mer of human IL-33
T8 peptide: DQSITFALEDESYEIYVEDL
Procedure: as §1

Pep5 = target: T9, Pep5 (human, N-terminal biotin); assay: as above
T9 construct: Synthetic 20-mer of human IL-33
T9 peptide: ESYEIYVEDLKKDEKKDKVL
Procedure: as §1

Pep1 = target: T10, Pep1 (human, N-terminal biotin); assay: as above
T10 construct: Synthetic 20-mer of human IL-33
T10 peptide: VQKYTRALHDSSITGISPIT
Procedure: as §1

Pep13 = target: T11, Pep13 (human, N-terminal biotin); assay: as above
T11 construct: Synthetic 20-mer of human IL-33
T11 peptide: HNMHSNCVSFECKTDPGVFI
Procedure: as §1

Pep7 = target: T12, Pep7 (human, N-terminal biotin); assay: as above
T12 construct: Synthetic 20-mer of human IL-33
T12 peptide: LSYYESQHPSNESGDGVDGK
Procedure: as §1

Pep3 = target: T13, Pep3 (human, N-terminal biotin); assay: as above
T13 construct: Synthetic 20-mer of human IL-33
T13 peptide: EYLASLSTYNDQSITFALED
Procedure: as §1

Pep8 = target: T14, Pep8 (human, N-terminal biotin); assay: as above
T14 construct: Synthetic 20-mer of human IL-33
T14 peptide: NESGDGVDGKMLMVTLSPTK
Procedure: as §1

Pep12 = target: T15, Pep12 (human, N-terminal biotin); assay: as above
T15 construct: Synthetic 20-mer of human IL-33
T15 peptide: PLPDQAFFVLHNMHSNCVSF
Procedure: as §1

Pep6 = target: T16, Pep6 (human, N-terminal biotin); assay: as above
T16 construct: Synthetic 20-mer of human IL-33
T16 peptide: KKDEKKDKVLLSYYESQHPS
Procedure: as §1

[1] = target: T17, IL-33 mutant protein K46A (human, UniProt O95760 112-270); assay: ELISA as Example 9; row K46A
T17 construct: Prokaryotic expression
T17 chain: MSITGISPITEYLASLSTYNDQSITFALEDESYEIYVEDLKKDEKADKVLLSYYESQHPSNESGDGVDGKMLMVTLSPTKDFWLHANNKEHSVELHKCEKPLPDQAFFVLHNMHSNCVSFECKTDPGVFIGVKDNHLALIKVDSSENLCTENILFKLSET
Procedure: SA protein was diluted to 2 μg/mL to coat ELISA plate at 100 μL/well overnight at 4° C. The plate was washed with PBST (PBS containing 0.05% Tween20) for 3 times, and blocked with 2% BSA prepared in PBS at 200 μL/well, at room temperature for 2 h. After the plate was washed twice with PBST, IL-33-his-biotin protein was diluted to 1 μg/mL with 1% BSA prepared in PBST, and was added to ELISA plate at 100 μL/well. The plate was incubated at room temperature for 1 h, and each monoclonal antibody was diluted with 1% BSA prepared in PBST in a 3-fold gradient. The highest concentration of antibody was 10 μg/mL, and the antibody was diluted for 12 gradients. Each diluted monoclonal antibody was added to ELISA wells with 100 μL/well, and the plate was incubated at room temperature for 1 h. Each sample was added to duplicate wells in parallel. The plate was washed with PBST for 3 times, and HRP-anti human IgG Fc secondary antibody prepared with PBST was diluted at an appropriate ratio, and was added to ELISA wells at 100 μL/well. […] Each reaction solution was shaken uniformly and OD450 nm was read on a microplate reader. The data was analyzed and EC₅₀ was calculated.
Subsequently, according to the experimental method of Example 9, the affinity of the above mutant proteins to 874F7-Hu1 was determined, and IL-33 proteins (WT-1, WT-2, WT-3, and WT-4) without any mutation were set as controls.

B1: 874F7 (antibody, V domains shown)
VH: QVQLKESGPGLVAPSHSLSITCNVSGFSLSKYGVHWIRQIPGRGLDWLGVLRAGGSTGYNSALMSRLSISKDSSKSQVFLKMNDLRTDDTAVYFCVRDHYYYSSYGGFVYWGQGTLVTVSA
VL: DIQMTQSPASQSASLGESVTITCLASQTIGAWLAWYRQQPGKSPQLLIYAATRLADGVPSRFSGSGSGTEFSFKINNLQAEDFVSYYCQQLDSSPYTFGGGTRLEM
notes: Murine hybridoma antibody purified on Protein G; also called murine antibody 874F7
For B1, the OD450 (Pep9) was 0.061 OD450, the OD450 (Pep15) was 0.052 OD450 and the OD450 (Pep10) was 0.052 OD450. The OD450 (Pep16) was 0.049 OD450, the OD450 (Pep14) was 0.053 OD450 and the OD450 (Pep11) was 0.053 OD450. For the same binder, the OD450 (Pep2) was 0.05 OD450, the OD450 (Pep4) was 0.048 OD450 and the OD450 (Pep5) was 0.049 OD450. The OD450 (Pep1) was 0.061 OD450, the OD450 (Pep13) was 0.053 OD450 and the OD450 (Pep7) was 0.051 OD450. For the same binder, the OD450 (Pep3) was 0.048 OD450, the OD450 (Pep8) was 0.047 OD450 and the OD450 (Pep12) was 0.053 OD450. It also gave an OD450 (Pep6) of 1.03 OD450.

B2: 874F7-Hu1 (antibody, human IgG4 S228P, kappa)
heavy: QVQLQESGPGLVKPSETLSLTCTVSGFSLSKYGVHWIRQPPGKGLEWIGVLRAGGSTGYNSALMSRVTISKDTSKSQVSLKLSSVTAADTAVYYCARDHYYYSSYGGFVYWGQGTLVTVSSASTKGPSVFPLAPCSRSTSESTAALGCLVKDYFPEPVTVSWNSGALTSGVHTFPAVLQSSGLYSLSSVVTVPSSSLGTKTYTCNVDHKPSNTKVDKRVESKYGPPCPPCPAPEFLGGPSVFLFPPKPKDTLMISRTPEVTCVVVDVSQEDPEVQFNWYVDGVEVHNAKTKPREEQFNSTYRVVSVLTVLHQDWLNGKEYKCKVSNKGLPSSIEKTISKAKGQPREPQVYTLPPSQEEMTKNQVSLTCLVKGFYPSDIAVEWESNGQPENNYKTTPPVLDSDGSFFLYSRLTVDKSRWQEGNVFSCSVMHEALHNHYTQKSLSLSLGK
light: DIQMTQSPSSVSASVGDRVTITCLASQTIGAWLAWYQQKPGKSPKLLIYAATRLADGVPSRFSGSGSGTDFTLTISSLQPEDFATYYCQQLDSSPYTFGQGTKVEIKRTVAAPSVFIFPPSDEQLKSGTASVVCLLNNFYPREAKVQWKVDNALQSGNSQESVTEQDSKDSTYSLSSTLTLSKADYEKHKVYACEVTHQGLSSPVTKSFNRGEC
notes: also called 874F7-Hul; humanized antibody 874F7-Hu1
In the case of B2, the EC50 [1] is reported as 0.23 nM.
